The RNAGym collection of RNA variant scans (doi:10.1093/nar/gkz1192)

B1: CPEB3 Ribozyme (parent)
chain: UAACAGGGGGCCACAGCAGAAGCGUUCACGUCGCAGCCCCUGUCAGAUUCUGGUGAAUCUGCGAAUUCUGCUGUAUAUCUC

Variants of: B1
Experiment: self-cleavage, relative activity (ratio to wild type); higher = more cleavage; in vitro, sequencing
Method in brief: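 Relative activity compares each variant's cleaved/total read fraction with that of the unmutated ribozyme. To get these fractions, barcoded CPEB3 ribozyme libraries from rounds of error-prone PCR were transcribed with T7 RNA polymerase for 5 hours at 37°C and then given 15 min of DNase I treatment before EDTA was added. The RNAs were reverse transcribed with template switching and sequenced on Illumina, and DNA sequencing linked barcodes to variants. A minimum of 5 reads applied, and three batches were averaged.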
UAACAGGGGGCCACAGCAGAGGCGUUCACGUCGCAGCCCCGGUCAGAUUCUGGUGAAUCUGCGAAUUCUGCUGUAUAUCUC [A21G U41G] showed a self-cleavage of 0.29. Work on UAACAGGGGGCCACAGCAGAGGCGUUCACGUCGCAGCCCCAGUCAGAUUCUGGUGAAUCUGCGAAUUCUGCUGUAUAUCUC [A21G U41A] yielded a self-cleavage of 0.3. For UAACAGGGGGCCACAGCAGAGGCGUUCACGUCGCAGCCCCCGUCAGAUUCUGGUGAAUCUGCGAAUUCUGCUGUAUAUCUC [A21G U41C], the self-cleavage was 0.66. UAACAGGGGGCCACAGCAGAGGCGUUCACGUCGCAGCCCCUGUCAGAUUCUGGGGAAUCUGCGAAUUCUGCUGUAUAUCUC [A21G U54G] gave a self-cleavage of 0.4. Variant UAACAGGGGGCCACAGCAGAGGCGUUCACGUCGCAGCCCCUGUCAGAUUCUGGAGAAUCUGCGAAUUCUGCUGUAUAUCUC [A21G U54A] has a self-cleavage of 0.71. Variant UAACAGGGGGCCACAGCAGAGGCGUUCACGUCGCAGCCCCUGUCAGAUUCUGGCGAAUCUGCGAAUUCUGCUGUAUAUCUC [A21G U54C] has a self-cleavage of 0.53. With UAACAGGGGGCCACAGCAGAGGCGUUCACGUCGCAGCCCCUGUCAGAUUCUGGUGAAUCUGCGAAAUCUGCUGUAUAUCUC [A21G U66A] the self-cleavage was 0.42. UAACAGGGGGCCACAGCAGAGGCGUUCACGUCGCAGCCCCUGUCAGAUUCUGGUGAAUCUGCGAAGUCUGCUGUAUAUCUC [A21G U66G] gave a self-cleavage of 0.44. With UAACAGGGGGCCACAGCAGAGGCGUUCACGUCGCAGCCCCUGUCAGAUUCUGGUGAAUCUGCGAACUCUGCUGUAUAUCUC [A21G U66C] the self-cleavage was 1.05. UAACAGGGGGCCACAGCAGAGGCGUUCACGACGCAGCCCCUGUCAGAUUCUGGUGAAUCUGCGAAUUCUGCUGUAUAUCUC [A21G U31A] gave a self-cleavage of 0.33. UAACAGGGGGCCACAGCAGAGGCGUUCACGGCGCAGCCCCUGUCAGAUUCUGGUGAAUCUGCGAAUUCUGCUGUAUAUCUC [A21G U31G] showed a self-cleavage of 0.41. Work on UAACAGGGGGCCACAGCAGAGGCGUUCACGCCGCAGCCCCUGUCAGAUUCUGGUGAAUCUGCGAAUUCUGCUGUAUAUCUC [A21G U31C] yielded a self-cleavage of 0.24. UAACAGGGGGCCACAGCAGAGGCGUUCACGUCGCAGCCCCUGUCAGAUUCUGGUGAAGCUGCGAAUUCUGCUGUAUAUCUC [A21G U58G] showed a self-cleavage of 0.39. In the case of UAACAGGGGGCCACAGCAGAGGCGUUCACGUCGCAGCCCCUGUCAGAUUCUGGUGAACCUGCGAAUUCUGCUGUAUAUCUC [A21G U58C], the self-cleavage is reported as 0.31. With UAACAGGGGGCCACAGCAGAGGCGUUCACGUCGCAGCCCCUGUCAGAUUCUGGUGAAACUGCGAAUUCUGCUGUAUAUCUC [A21G U58A] the self-cleavage was 0.29. Work on UAACAGGGGGCCACAGCAGAGGCGUUCACGUCGCAGCCCCUGUCAGAUGCUGGUGAAUCUGCGAAUUCUGCUGUAUAUCUC [A21G U49G] yielded a self-cleavage of 0.23. Variant UAACAGGGGGCCACAGCAGAGGCGUUCACGUCGCAGCCCCUGUCAGAUACUGGUGAAUCUGCGAAUUCUGCUGUAUAUCUC [A21G U49A] has a self-cleavage of 0.48. Work on UAACAGGGGGCCACAGCAGAGGCGUUCACGUCGCAGCCCCUGUCAGAUCCUGGUGAAUCUGCGAAUUCUGCUGUAUAUCUC [A21G U49C] yielded a self-cleavage of 0.27. Variant UAACAGGGGGCCACAGCAGAGGCGUACACGUCGCAGCCCCUGUCAGAUUCUGGUGAAUCUGCGAAUUCUGCUGUAUAUCUC [A21G U26A] has a self-cleavage of 0.52. For UAACAGGGGGCCACAGCAGAGGCGUGCACGUCGCAGCCCCUGUCAGAUUCUGGUGAAUCUGCGAAUUCUGCUGUAUAUCUC [A21G U26G], the self-cleavage was 0.25. For UAACAGGGGGCCACAGCAGAGGCGUCCACGUCGCAGCCCCUGUCAGAUUCUGGUGAAUCUGCGAAUUCUGCUGUAUAUCUC [A21G U26C], the self-cleavage was 0.29. In the case of UAACAGGGGGCCACAGCAGAGGCGUUCACGUCGCAGCCCCUGUCAGAUUCUGGUGAAUCGGCGAAUUCUGCUGUAUAUCUC [A21G U60G], the self-cleavage is reported as 0.29. Work on UAACAGGGGGCCACAGCAGAGGCGUUCACGUCGCAGCCCCUGUCAGAUUCUGGUGAAUCCGCGAAUUCUGCUGUAUAUCUC [A21G U60C] yielded a self-cleavage of 0.27. UAACAGGGGGCCACAGCAGAGGCGUUCACGUCGCAGCCCCUGUCAGAUUCUGGUGAAUCAGCGAAUUCUGCUGUAUAUCUC [A21G U60A] showed a self-cleavage of 0.32. UAACAGGGGGCCACAGCAGAGGCGUUCACGUCGCAGCCCCUGUCAGAUUCAGGUGAAUCUGCGAAUUCUGCUGUAUAUCUC [A21G U51A] gave a self-cleavage of 0.64. UAACAGGGGGCCACAGCAGAGGCGUUCACGUCGCAGCCCCUGUCAGAUUCCGGUGAAUCUGCGAAUUCUGCUGUAUAUCUC [A21G U51C] showed a self-cleavage of 0.6. With UAACAGGGGGCCACAGCAGAGGCGUUCACGUCGCAGCCCCUGUCAGAUUCGGGUGAAUCUGCGAAUUCUGCUGUAUAUCUC [A21G U51G] the self-cleavage was 0.72. UAACAGGGGGCCACAGCAGAGGCGUUCACGUCGCAGCCCCUGUCAGACUCUGGUGAAUCUGCGAAUUCUGCUGUAUAUCUC [A21G U48C] gave a self-cleavage of 0.3. In the case of UAACAGGGGGCCACAGCAGAGGCGUUCACGUCGCAGCCCCUGUCAGAGUCUGGUGAAUCUGCGAAUUCUGCUGUAUAUCUC [A21G U48G], the self-cleavage is reported as 0.34. With UAACAGGGGGCCACAGCAGAGGCGUUCACGUCGCAGCCCCUGUCAGAAUCUGGUGAAUCUGCGAAUUCUGCUGUAUAUCUC [A21G U48A] the self-cleavage was 0.35. With UAACAGGGGGCCACAGCAGAGGCGGUCACGUCGCAGCCCCUGUCAGAUUCUGGUGAAUCUGCGAAUUCUGCUGUAUAUCUC [A21G U25G] the self-cleavage was 0.34. UAACAGGGGGCCACAGCAGAGGCGUUCACGUCGCAGCCCCUGCCAGAUUCUGGUGAAUCUGCGAAUUCUGCUGUAUAUCUC [A21G U43C] showed a self-cleavage of 0.33. In the case of UAACAGGGGGCCACAGCAGAGGCGUUCACGUCGCAGCCCCUGGCAGAUUCUGGUGAAUCUGCGAAUUCUGCUGUAUAUCUC [A21G U43G], the self-cleavage is reported as 0.14. UAACAGGGGGCCACAGCAGAGGCGUUCACGUCGCAGCCCCUGACAGAUUCUGGUGAAUCUGCGAAUUCUGCUGUAUAUCUC [A21G U43A] showed a self-cleavage of 0.75.
